Experimental data reported in publication PMC6325624, “A novel isoprimeverose‐producing enzyme from Phaeoacremonium minimum is active with low concentrations of xyloglucan oligosaccharides” (FEBS Open Bio, 2018).

B1: PmIPase (Phaeoacremonium minimum UCRPA7) (protein)
chain: VPVYKNPNATVDDRIADLLKRMTIEDKTAQLIQGDISNWINTTDGTFNATGLEWNMKYRASMFYVGYPTNWSTISNGVKIAQDYLVHNTTLGIPALVQSEGIHGFLIPNATIFNSPIAQACSWNPELVEKMGKAIAQESLALGVNNLFAPLGDLARELRFGRVEETYGEDGYLSGEMAYSYVKGLQSGNVAAMVKHFAAFATPEQGVNTAPVHGGERELLTTYLPSYKRAIIDAGAYTIMSAYHCYDGVPAVADYHVLTEILRDSWGFKYFVMSDAGGTDRLCNSFGMCEASPIDSEAVTSMVLPSGNDVEMGGGSYNFQKIPEMVAAGKLDEKLVDQAVSRVLRVKFEMGLFEKPYQGVAEDEASKYINTKETIELARQLDTESIVLLENHEDLLPLKKSAKIAVIGPMAHGYMNYGDYVPYRSQYRGVTPLDGIRAAVDDESSVSYAQGCERWSNDESGFPEAIAAAEGADVAVVVVGTWSRDQGELWQNLNATTGEHIDVASLNLVGAMPRLVSAIINTGKPTVVVFSSGKPVTEPWISTNASALVQQFYPSEQGGNALADVLFGDYNPSGRLSVSFPYDVGTTPIYYDYLNSARAWPNPGHAYPNGTLVFGSNYVLNTPLPLYDFGYGKSYSTFSYSEITLSKSTASSSDTVTVSVDVTNNSTRDGTEVVQLYVKDLVSSVVVPNKQLKGFAKIPIAAGATETVKLDLKVADLGLWDIKYNYVVEPGNFTIFIGSSSADFRANTTLTVV
notes: synthetic codon-optimized gene, secreted from Pichia pastoris X-33 (pGAPZalpha A), Myc and His6 tags kept; full length 777 aa (2334 bp), predicted 24-aa N-terminal signal peptide absent from calculated mass 85 kDa; N-glycosylated, ~101 kDa on SDS/PAGE; putative nucleophile Asp-299, acid/base Glu-523

Columns and labels:
[1] = system: OC[C@@H](O)[C@@H](O[C@@H]1O[C@H](CO[C@H]2OC[C@@H](O)[C@H](O)[C@H]2O)[C@@H](O[C@@H]2O[C@H](CO[C@H]3OC[C@@H](O)[C@H](O)[C@H]3O)[C@@H](O[C@@H]3O[C@H](CO[C@H]4OC[C@@H](O)[C@H](O)[C@H]4O)[C@@H](O)[C@H](O)[C@H]3O)[C@H](O)[C@H]2O)[C@H](O)[C@H]1O)[C@H](O)[C@@H](O)CO; experiment: bicinchoninate reducing-sugar assay, Michaelis-Menten nonlinear regression; assay type: biochemical, Aspergillus oryzae; details: 50 mM sodium phosphate pH 4.5, 60 °C, 5 min, 0.0625-4 mM substrate
Source text: bicinchoninate reducing-sugar assay, Michaelis-Menten nonlinear regression on IpeA

[2] = substrate: OC[C@@H](O)[C@@H](O[C@@H]1O[C@H](CO[C@H]2OC[C@@H](O)[C@H](O)[C@H]2O)[C@@H](O[C@@H]2O[C@H](CO[C@H]3OC[C@@H](O)[C@H](O)[C@H]3O)[C@@H](O[C@@H]3O[C@H](CO[C@H]4OC[C@@H](O)[C@H](O)[C@H]4O)[C@@H](O)[C@H](O)[C@H]3O)[C@H](O)[C@H]2O)[C@H](O)[C@H]1O)[C@H](O)[C@@H](O)CO; experiment: as above; assay type: biochemical, Phaeoacremonium minimum; details: 50 mM sodium phosphate pH 4.5, 60 °C, 5 min, 0.0125-0.8 mM substrate
Source text: bicinchoninate reducing-sugar assay, Michaelis-Menten nonlinear regression on PmIPase

Row | Molecule | Km [1] | kcat [1] | kcat/Km [1] | Km [2] | kcat [2] | kcat/Km [2]
1 | IpeA (Aspergillus oryzae RIB40) | 629 ± 51 µM | 586 ± 16 s⁻¹ | 931000 M⁻¹ s⁻¹ |  |  | 
2 | B1 |  |  |  | 47.5 ± 4.8 µM | 101 ± 3 s⁻¹ | 2.13e+06 M⁻¹ s⁻¹
